In the supplement of paper PMC5998384:

Tests used:
[1] = tested on: HeLa Kyoto; assay: solubility in G1/S (NP-40 vs SDS abundance) (log2 ratio); higher = more soluble; settings: cell cycle stage: G1/S
[2] = tested on: HeLa Kyoto; assay: thermal stability score vs G1/S (z-score of summed log2 fold changes over temperatures); higher = more thermally stable than in G1/S
[3] = tested on: HeLa Kyoto; assay: melting temperature (median over replicates), in situ; higher = more thermally stable
[4] = tested on: HeLa Kyoto; assay: solubility change mitosis vs G1/S (difference of NP-40 vs SDS log2 ratios) (log2 ratio difference); higher = more soluble in mitosis
[5] = cell cycle stage: early G1 (4.5 h after nocodazole release)
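For melting temperature (median over replicates), in situ in this document: HeLa Kyoto cells synchronized by double thymidine or nocodazole block, proteins quantified by TMT10plex mass spectrometry, three independent biological replicates.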
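For solubility change mitosis vs G1/S (difference of NP-40 vs SDS log2 ratios) in this document: synchronized HeLa Kyoto cells (double thymidine block for G1/S, nocodazole release for mitosis), protein amounts in NP-40 versus SDS lysates quantified by mass spectrometry, three biological replicates.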
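For solubility in G1/S (NP-40 vs SDS abundance) in this document: HeLa Kyoto cells arrested at G1/S by double thymidine block, proteins quantified by TMT10plex mass spectrometry in mild NP-40 versus SDS extracts, three biological replicates.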
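For thermal stability score vs G1/S (z-score of summed log2 fold changes over temperatures) in this document: synchronized HeLa Kyoto cells, proteins quantified by TMT10plex mass spectrometry, three biological replicates, mitosis taken 0.5 h after nocodazole release, G1/S directly after double thymidine block.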

Substance	solubility in G1/S (log2) [1]	thermal stability score [2, 5]	thermal stability score ([2]; cell cycle stage: mitosis)	melting temperature ([3]; cell cycle stage: G1/S) [°C]	melting temperature ([3]; cell cycle stage: mitosis) [°C]	solubility change mitosis (log2) [4]
MEELLRRELGCSSVRATGHSGGGCISQGRSYDTDQGRVFVKVNPKAEARRMFEGEMASLTAILKTNTVKVPKPIKVLDAPGGGSVLVMEHMDMRHLSSHAAKLGAQLADLHLDNKKLGEMRLKEAGTVGRGGGQEERPFVARFGFDVVTCCGYLPQVNDWQEDWVVFYARQRIQPQMDMVEKESGDREALQLWSALQLKIPDLFRDLEIIPALLHGDLWGGNVAEDSSGPVIFDPASFYGHSEYELAIAGMFGGFSSSFYSAYHGKIPKAPGFEKRLQLYQLFHYLNHWNHFGSGYRGSSLNIMRNLVK [FN3KRP]	0.12	-1.05	-2.45	61.1	58.3	0.00242
MVRPVRHKKPVNYSQFDHSDSDDDFVSATVPLNKKSRTAPKELKQDKPKPNLNNLRKEEIPVQEKTPKKRLPEGTFSIPASAVPCTKMALDDKLYQRDLEVALALSVKELPTVTTNVQNSQDKSIEKHGSSKIETMNKSPHISNCSVASDYLDLDKITVEDDVGGVQGKRKAASKAAAQQRKILLEGSDGDSANDTEPDFAPGEDSEDDSDFCESEDNDEDFSMRKSKVKEIKKKEVKVKSPVEKKEKKSKSKCNALVTSVDSAPAAVKSESQSLPKKVSLSSDTTRKPLEIRSPSAESKKPKWVPPAASGGSRSSSSPLVVVSVKSPNQSLRLGLSRLARVKPLHPNATST [RAD51AP1]	0.0638	1.26	7.25	53.8	58	0.203
MSTAREQPIFSTRAHVFQIDPATKRNWIPAGKHALTVSYFYDATRNVYRIISIGGAKAIINSTVTPNMTFTKTSQKFGQWADSRANTVYGLGFASEQHLTQFAEKFQEVKEAARLAREKSQDGGELTSPALGLASHQVPPSPLVSANGPGEEKLFRSQSADAPGPTERERLKKMLSEGSVGEVQWEAEFFALQDSNNKLAGALREANAAAAQWRQQLEAQRAEAERLRQRVAELEAQAASEVTPTGEKEGLGQGQSLEQLEALVQTKDQEIQTLKSQTGGPREALEAAEREETQQKVQDLETRNAELEHQLRAMERSLEEARAERERARAEVGRAAQLLDVSLFELSELREGLARLAEAAP [HOMER3]	0.263	-1.1	-1.09	48.7	51.7	0.0389
USP24	-0.205	0.0834	-0.634	51.4	50.5	-0.155
MENKSLESSQTDLKLVAHPRAKSKVWKYFGFDTNAEGCILQWKKIYCRICMAQIAYSGNTSNLSYHLEKNHPEEFCEFVKSNTEQMREAFATAFSKLKPESSQQPGQDALAVKAGHGYDSKKQQELTAAVLGLICEGLYPASIVDEPTFKVLLKTADPRYELPSRKYISTKAIPEKYGAVREVILKELAEATWCGISTDMWRSENQNRAYVTLAAHFLGLGAPNCLSMGSRCLKTFEVPEENTAETITRVLYEVFIEWGISAKVFGATTNYGKDIVKACSLLDVAVHMPCLGHTFNAGIQQAFQLPKLGALLSRCRKLVEYFQQSAVAMYMLYEKQKQQNVAHCMLVSNRVSWWGSTLAMLQRLKEQQFVIAGVLVEDSNNHHLMLEASEWATIEGLVELLQPFKQVAEMLSASRYPTISMVKPLLHMLLNTTLNIKETDSKELSMAKEVIAKELSKTYQETPEIDMFLNVATFLDPRYKRLPFLSAFERQQVENRVVEEAKGLLDKVKDGGYRPAEDKIFPVPEEPPVKKLMRTSTPPPASVINNMLAEIFCQTGGVEDQEEWHAQVVEELSNFKSQKVLGLNEDPLKWWSDRLALFPLLPKVLQKYWCVTATRVAPERLFGSAANVVSAKRNRLAPAHVDEQVFLYENARSGAEAEPEDQDEGEWGLDQEQVFSLGDGVSGGFFGIRDSSFL [ZBED1]	0.0447	0.506	0.95	49.7	49.6	-0.112
MVLIKEFRVVLPCSVQEYQVGQLYSVAEASKNETGGGEGIEVLKNEPYEKDGEKGQYTHKIYHLKSKVPAFVRMIAPEGSLVFHEKAWNAYPYCRTIVTNEYMKDDFFIKIETWHKPDLGTLENVHGLDPNTWKTVEIVHIDIADRSQVEPADYKADEDPALFQSVKTKRGPLGPNWKKELANSPDCPQMCAYKLVTIKFKWWGLQSKVENFIQKQEKRIFTNFHRQLFCWIDKWIDLTMEDIRRMEDETQKELETMRKRGSVRGTSAADV [PITPNB]	0.199	2.34	2.14	52.9	53.4	-0.0681
MSRIEKMSILGVRSFGIEDKDKQIITFFSPLTILVGPNGAGKTTIIECLKYICTGDFPPGTKGNTFVHDPKVAQETDVRAQIRLQFRDVNGELIAVQRSMVCTQKSKKTEFKTLEGVITRTKHGEKVSLSSKCAEIDREMISSLGVSKAVLNNVIFCHQEDSNWPLSEGKALKQKFDEIFSATRYIKALETLRQVRQTQGQKVKEYQMELKYLKQYKEKACEIRDQITSKEAQLTSSKEIVKSYENELDPLKNRLKEIEHNLSKIMKLDNEIKALDSRKKQMEKDNSELEEKMEKVFQGTDEQLNDLYHNHQRTVREKERKLVDCHRELEKLNKESRLLNQEKSELLVEQGRLQLQADRHQEHIRARDSLIQSLATQLELDGFERGPFSERQIKNFHKLVRERQEGEAKTANQLMNDFAEKETLKQKQIDEIRDKKTGLGRIIELKSEILSKKQNELKNVKYELQQLEGSSDRILELDQELIKAERELSKAEKNSNVETLKMEVISLQNEKADLDRTLRKLDQEMEQLNHHTTTRTQMEMLTKDKADKDEQIRKIKSRHSDELTSLLGYFPNKKQLEDWLHSKSKEINQTRDRLAKLNKELASSEQNKNHINNELKRKEEQLSSYEDKLFDVCGSQDFESDLDRLKEEIEKSSKQRAMLAGATAVYSQFITQLTDENQSCCPVCQRVFQTEAELQEVISDLQSKLRLAPDKLKSTESELKKKEKRRDEMLGLVPMRQSIIDLKEKEIPELRNKLQNVNRDIQRLKNDIEEQETLLGTIMPEEESAKVCLTDVTIMERFQMELKDVERKIAQQAAKLQGIDLDRTVQQVNQEKQEKQHKLDTVSSKIELNRKLIQDQQEQIQHLKSTTNELKSEKLQISTNLQRRQQLEEQTVELSTEVQSLYREIKDAKEQVSPLETTLEKFQQEKEELINKKNTSNKIAQDKLNDIKEKVKNIHGYMKDIENYIQDGKDDYKKQKETELNKVIAQLSECEKHKEKINEDMRLMRQDIDTQKIQERWLQDNLTLRKRNEELKEVEEERKQHLKEMGQMQVLQMKSEHQKLEENIDNIKRNHNLALGRQKGYEEEIIHFKKELREPQFRDAEEKYREMMIVMRTTELVNKDLDIYYKTLDQAIMKFHSMKMEEINKIIRDLWRSTYRGQDIEYIEIRSDADENVSASDKRRNYNYRVVMLKGDTALDMRGRCSAGQKVLASLIIRLALAETFCLNCGIIALDEPTTNLDRENIESLAHALVEIIKSRSQQRNFQLLVITHDEDFVELLGRSEYVEKFYRIKKNIDQCSEIVKCSVSSLGFNVH [RAD50]	-0.129	2.17	3.45	48.8	49.7	-0.108
MEKNGNNRKLRVCVATCNRADYSKLAPIMFGIKTEPEFFELDVVVLGSHLIDDYGNTYRMIEQDDFDINTRLHTIVRGEDEAAMVESVGLALVKLPDVLNRLKPDIMIVHGDRFDALALATSAALMNIRILHIEGGEVSGTIDDSIRHAITKLAHYHVCCTRSAEQHLISMCEDHDRILLAGCPSYDKLLSAKNKDYMSIIRMWLGDDVKSKDYIVALQHPVTTDIKHSIKMFELTLDALISFNKRTLVLFPNIDAGSKEMVRVMRKKGIEHHPNFRAVKHVPFDQFIQLVAHAGCMIGNSSCGVREVGAFGTPVINLGTRQIGRETGENVLHVRDADTQDKILQALHLQFGKQYPCSKIYGDGNAVPRILKFLKSIDLQEPLQKKFCFPPVKENISQDIDHILETLSALAVDLGGTNLRVAIVSMKGEIVKKYTQFNPKTYEERINLILQMCVEAAAEAVKLNCRILGVGISTGGRVNPREGIVLHSTKLIQEWNSVDLRTPLSDTLHLPVWVDNDGNCAALAERKFGQGKGLENFVTLITGTGIGGGIIHQHELIHGSSFCAAELGHLVVSLDGPDCSCGSHGCIEAYASGMALQREAKKLHDEDLLLVEGMSVPKDEAVGALHLIQAAKLGNAKAQSILRTAGTALGLGVVNILHTMNPSLVILSGVLASHYIHIVKDVIRQQALSSVQDVDVVVSDLVDPALLGAASMVLDYTTRRIY [GNE]	-0.138	3.4	4.39	55.2	55.8	-0.159
ABCC1	0.0337	-0.781	-0.316	54.5	53.7	-0.0751
MSNAKERKHAKKMRNQPTNVTLSSGFVADRGVKHHSGGEKPFQAQKQEPHPGTSRQRQTRVNPHSLPDPEVNEQSSSKGMFRKKGGWKAGPEGTSQEIPKYITASTFAQARAAEISAMLKAVTQKSSNSLVFQTLPRHMRRRAMSHNVKRLPRRLQEIAQKEAEKAVHQKKEHSKNKCHKARRCHMNRTLEFNRRQKKNIWLETHIWHAKRFHMVKKWGYCLGERPTVKSHRACYRAMTNRCLLQDLSYYCCLELKGKEEEILKALSGMCNIDTGLTFAAVHCLSGKRQGSLVLYRVNKYPREMLGPVTFIWKSQRTPGDPSESRQLWIWLHPTLKQDILEEIKAACQCVEPIKSAVCIADPLPTPSQEKSQTELPDEKIGKKRKRKDDGENAKPIKKIIGDGTRDPCLPYSWISPTTGIIISDLTMEMNRFRLIGPLSHSILTEAIKAASVHTVGEDTEETPHRWWIETCKKPDSVSLHCRQEAIFELLGGITSPAEIPAGTILGLTVGDPRINLPQKKSKALPNPEKCQDNEKVRQLLLEGVPVECTHSFIWNQDICKSVTENKISDQDLNRMRSELLVPGSQLILGPHESKIPILLIQQPGKVTGEDRLGWGSGWDVLLPKGWGMAFWIPFIYRGVRVGGLKESAVHSQYKRSPNVPGDFPDCPAGMLFAEEQAKNLLEKYKRRPPAKRPNYVKLGTLAPFCCPWEQLTQDWESRVQAYEEPSVASSPNGKESDLRRSEVPCAPMPKKTHQPSDEVGTSIEHPREAEEVMDAGCQESAGPERITDQEASENHVAATGSHLCVLRSRKLLKQLSAWCGPSSEDSRGGRRAPGRGQQGLTREACLSILGHFPRALVWVSLSLLSKGSPEPHTMICVPAKEDFLQLHEDWHYCGPQESKHSDPFRSKILKQKEKKKREKRQKPGRASSDGPAGEEPVAGQEALTLGLWSGPLPRVTLHCSRTLLGFVTQGDFSMAVGCGEALGFVSLTGLLDMLSSQPAAQRGLVLLRPPASLQYRFARIAIEV [POP1]	-0.778	1.22	-1.05	52.2	51.8	0.246
GCHFR	0.27	-1.12	-0.945	55	59.7	0.498
MASKCPKCDKTVYFAEKVSSLGKDWHKFCLKCERCSKTLTPGGHAEHDGKPFCHKPCYATLFGPKGVNIGGAGSYIYEKPLAEGPQVTGPIEVPAARAEERKASGPPKGPSRASSVTTFTGEPNTCPRCSKKVYFAEKVTSLGKDWHRPCLRCERCGKTLTPGGHAEHDGQPYCHKPCYGILFGPKGVNTGAVGSYIYDRDPEGKVQP [CRIP2]	0.608	-3.58	-3.7	55	53.2	0.0882
MAPMGIRLSPLGVAVFCLLGLGVLYHLYSGFLAGRFSLFGLGGEPGGGAAGPAAAADGGTVDLREMLAVSVLAAVRGGDEVRRVRESNVLHEKSKGKTREGAEDKMTSGDVLSNRKMFYLLKTAFPSVQINTEEHVDAADQEVILWDHKIPEDILKEVTTPKEVPAESVTVWIDPLDATQEYTEDLRKYVTTMVCVAVNGKPMLGVIHKPFSEYTAWAMVDGGSNVKARSSYNEKTPRIVVSRSHSGMVKQVALQTFGNQTTIIPAGGAGYKVLALLDVPDKSQEKADLYIHVTYIKKWDICAGNAILKALGGHMTTLSGEEISYTGSDGIEGGLLASIRMNHQALVRKLPDLEKTGHK [IMPAD1]	0.145	0.124	-1.11	59.1	58.9	-0.132
